Test [1] has as its target T1, 391-2_DS-Cav1-tzsc9.
T1 construct: also called sc-v52
The experiment in a line: ELISA, variant from culture supernatant on Ni-NTA plate [continued].
Experimental: (§1) Initial assessment of all constructs were performed using a 96-well microplate format for high throughput expression followed by an ELISA-based antigenic evaluation as described previously 17. […] Plasmid DNA and TrueFect-Max (United BioSystems, MD) were mixed and added to the growing cells, and the 96-well plate incubated at 37° C., 5% CO2. One day post transfection, enriched medium (high glucose DMEM plus 25% ultra-low IgG fetal bovine serum, 2× nonessential amino acids, 1× glutamine) was added to each well, and the 96-well plate was returned to the incubator for continuous culture.

In test [2] the target is T2, RB94_sc9-10 DS-CAV1 L373R.
T2 construct: also called sc-v38
The description is as above.
Experimental: as §1

Test [3] addresses T3, 391-2-DS-Cav1-IP-7.
T3 construct: also called sc-v46
The description is as above.
Experimental: as §1

Test [4] has as its target T4, 391-2-DS-Cav1-IP-2.
T4 construct: also called sc-v40
The description is as above.
Experimental: as §1

Test [5] has as its target T5, 391-2-DS-Cav1-BZGJ9_gyc2.
T5 construct: also called sc-v48
The description is as above.
Experimental: as §1

Test [6] addresses T6, 391-2-DS-Cav1-BZGJ9.
T6 construct: also called sc-v47
The test is described as above.
Experimental: as §1

The target in test [7] is T7, 391-2_DS-Cav1-tzsc4.
T7 construct: also called sc-v39
The test is described as above.
Experimental: as §1

Test [8] has as its target T8, 391-2_DS-Cav1-tzsc4.
T8 construct: also called sc-v51
The test is described as above.
Experimental: as §1

In test [9] the target is T9, 391-2-DS-Cav1-SC-IP-1.
T9 construct: also called sc-v49
Described as above.
Experimental: as §1

The target in test [10] is T10, KXsb2.
T10 construct: also called sc-v56
The test is described as above.
Experimental: as §1

Test [11] addresses T11, sc9-10_DS-CAV1_bRSV(RB94)_Fd_fp1_ig1.
T11 construct: also called sc-v44
The description is as above.
Experimental: as §1

Test [12] has as its target T12, RB94 hu/bov DS-Cav1 Long FdPL.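 Further: antigenic evaluation by ELISA of constructs expressed at small scale in 96-well plates after transient plasmid transfection of cells.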
T12 construct: also called sc-v20
Briefly: ELISA, variant from culture supernatant on Ni-NTA plate. (ELISA stands for enzyme-linked immunosorbent assay.)
Experimental: as §1

B1: MPE8 antibody (antibody, V domains shown)
VH: EVQLVESGGGLVKPGGSLRLSCAASGFTFSSYSMNWVRQAPGKGLEWVSSISASSSYSDYADSAKGRFTISRDNAKTSLFLQMNSLRAEDTAIYFCARARATGYSSITPYFDIWGQGTLVTVSS
VL: QSVVTQTPSVSGAPGQRVTISCTGSSSNIGAGYDVHWYQQLPGTAPKLLIYDNNNRPSGVPDRFSASKSGTSASLAITGLQAEDEADYYCQSYDRNLSGVFGTGTKVTVL
notes: also called mAb MPE8
Turning to B1, the ELISA binding value in test [1] amounted to 0.1; in test [2], 0.258; in [3], 0.0761; in [4], 0.217; in test [5], 0.12; in [6] it was 0.0926. In addition, the ELISA binding value in test [7] came out at 0.263; in test [8], 0.096; in test [9] it was 0.155; in test [10], 0.0752; in test [11] it was 0.0965; in test [12] it was 1.38.

B2: D25 antibody (antibody, V domains shown)
VH: QVQLVQSGAEVKKPGSSVMVSCQASGGPLRNYIINWLRQAPGQGPEWMGGIIPVLGTVHYAPKFQGRVTITADESTDTAYIHLISLRSEDTAMYYCATETALVVSTTYLPHYFDNWGQGTLVTVSS
VL: DIQMTQSPSSLSAAVGDRVTITCQASQDIVNYLNWYQQKPGKAPKLLIYVASNLETGVPSRFSGSGSGTDFSLTISSLQPEDVATYYCQQYDNLPLTFGGGTKVEIK
notes: also called mAb D25
For B2, the ELISA binding value in [1] worked out at 0.132; in test [2], 0.27; in [3] it was 0.201; in [4] it was 0.197; in [5], 0.144; in test [6], 0.183. Also, the ELISA binding value turned out to be 0.219 in [7]; 0.138 in test [8]; 0.0985 in [9]; 0.132 in test [10]; 0.191 in test [11].

These data come from US20190330277A1 (PIRBRIGHT INSTITUTE, published 2019).
